Assay results as given in US20100196398A1.

Target: human CD105 (human) (UniProt P17813)
Assay: FACS titration of FITC-labeled SN6 on HUVEC cells

human CD105 (human), sequence (P17813 26-658): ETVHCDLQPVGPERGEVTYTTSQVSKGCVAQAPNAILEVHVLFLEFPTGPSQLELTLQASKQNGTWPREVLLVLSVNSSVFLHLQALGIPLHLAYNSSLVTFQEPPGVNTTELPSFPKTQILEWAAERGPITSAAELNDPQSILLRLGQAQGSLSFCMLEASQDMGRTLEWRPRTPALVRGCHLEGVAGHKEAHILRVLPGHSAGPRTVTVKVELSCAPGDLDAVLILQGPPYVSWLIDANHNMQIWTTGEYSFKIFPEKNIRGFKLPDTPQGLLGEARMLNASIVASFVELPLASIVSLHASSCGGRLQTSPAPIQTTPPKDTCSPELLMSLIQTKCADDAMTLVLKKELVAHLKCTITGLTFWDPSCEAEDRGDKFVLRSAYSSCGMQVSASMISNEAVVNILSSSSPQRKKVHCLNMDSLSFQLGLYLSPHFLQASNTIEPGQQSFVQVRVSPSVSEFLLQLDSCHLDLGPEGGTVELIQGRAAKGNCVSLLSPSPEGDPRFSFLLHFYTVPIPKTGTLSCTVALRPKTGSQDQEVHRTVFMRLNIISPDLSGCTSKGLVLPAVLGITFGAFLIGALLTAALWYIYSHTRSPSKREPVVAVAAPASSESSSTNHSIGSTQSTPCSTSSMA

EC50: 2 µg/mL
Substance: SN6 antibody (Abcam)
